Experimental data: FireProtDB (doi:10.1073/pnas.91.22.10325)

Details: Equus caballus, pH 1.8, Thermal, HCl 20 mM, reversible: yes

Chain of Cytochrome c wild type, P00004 (P00004 whole entry): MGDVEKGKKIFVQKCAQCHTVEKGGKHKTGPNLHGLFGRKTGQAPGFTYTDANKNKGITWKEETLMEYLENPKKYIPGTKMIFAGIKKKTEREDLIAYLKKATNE

Cytochrome c wild type, P00004
Tm (CD, NaClO4 10 mM): 25.8 °C
heat capacity change of unfolding (CD, NaClO4 10 mM): 0.43 kcal/mol/K
unfolding enthalpy (van 't Hoff) (CD, NaClO4 10 mM): 28.2 kcal/mol
Tm (CD, NaClO4 20 mM): 37 °C
heat capacity change of unfolding (CD, NaClO4 20 mM): 0.43 kcal/mol/K
unfolding enthalpy (van 't Hoff) (CD, NaClO4 20 mM): 32.5 kcal/mol
Tm (CD, NaClO4 50 mM): 47 °C
heat capacity change of unfolding (CD, NaClO4 50 mM): 0.43 kcal/mol/K
unfolding enthalpy (van 't Hoff) (CD, NaClO4 50 mM): 38 kcal/mol
Tm (DSC, NaClO4 20 mM): 34.4 °C
heat capacity change of unfolding (DSC, NaClO4 20 mM): 0.31 kcal/mol/K
unfolding enthalpy (calorimetric) (DSC, NaClO4 20 mM): 32.3 kcal/mol
unfolding enthalpy (van 't Hoff) (DSC, NaClO4 20 mM): 31.8 kcal/mol
Tm (DSC, NaClO4 30 mM): 40 °C
heat capacity change of unfolding (DSC, NaClO4 30 mM): 0.31 kcal/mol/K
unfolding enthalpy (calorimetric) (DSC, NaClO4 30 mM): 31.4 kcal/mol
unfolding enthalpy (van 't Hoff) (DSC, NaClO4 30 mM): 31.4 kcal/mol
Tm (DSC, NaClO4 40 mM): 42.6 °C
heat capacity change of unfolding (DSC, NaClO4 40 mM): 0.31 kcal/mol/K
unfolding enthalpy (calorimetric) (DSC, NaClO4 40 mM): 34.9 kcal/mol
unfolding enthalpy (van 't Hoff) (DSC, NaClO4 40 mM): 34.9 kcal/mol
Tm (DSC, NaClO4 50 mM): 44.1 °C
heat capacity change of unfolding (DSC, NaClO4 50 mM): 0.31 kcal/mol/K
unfolding enthalpy (calorimetric) (DSC, NaClO4 50 mM): 33.7 kcal/mol
unfolding enthalpy (van 't Hoff) (DSC, NaClO4 50 mM): 33.7 kcal/mol
